Data on 94 variants can be found in the supplement of paper PMC10567573.

B1: DVL3 (parent)
chain: SDVVDWLYHNVEGFTDRREARKYA
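Further: lentivirally expressed fusions sorted by FACS into six bins by GFP to DsRed ratio, PSI derived from sequencing read proportions per bin multiplied by bin number.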

The variants in the data set derive from B1. As to the kind of experiment: protein stability index of a GFP-peptide fusion (GPS, HEK-293T) (PSI 1-6); higher = more stable. Particulars: c terminus: a fixed tail appended.
In the case of SDVVDWLYHNVEGFTDPREARKYA [R17P], the protein stability index amounted to 3.33.

As for SDVVDWLYHNVEGFTDNREARKYA [R17N], the protein stability index stood at 2.65.

For the variant SDVVDWLYHNVEGFTDHREARKYA [R17H], the protein stability index turned out to be 4.21.

As to SDVVDWLYHNVEGFTDYREARKYA [R17Y], the protein stability index turned out to be 2.45.

For SDVVDWLYHNVEGFTDMREARKYA [R17M], the protein stability index was 2.63.

On to SDVVDWLYHNVEGFTDQREARKYA [R17Q], for which the protein stability index is 3.67.

Take SDVVDWLYHNVEGFTDSREARKYA [R17S]: the protein stability index worked out at 3.9.

As for SDVVDWLYHNVEGFTDVREARKYA [R17V], the protein stability index is 2.37.

As to SDVVDWLYHNVEGFTDWREARKYA [R17W], the protein stability index amounted to 2.

Take SDVVDWLYHNVEGFTDLREARKYA [R17L]: the protein stability index amounted to 2.69.

Regarding SDVVDWLYHNVEGFTDTREARKYA [R17T], the protein stability index came out at 3.09.

Turning to SDVVDWLYHNVEGFTDKREARKYA [R17K], the protein stability index is 3.7.

Consider SDVVDWLYHNVEGFTDIREARKYA [R17I], for which the protein stability index is 1.82.

As for SDVVDWLYHNVEGFTDRREARKYW [A24W], the protein stability index amounted to 1.09.

For the variant SDVVDWLYHNVEGFTDRREARKYV [A24V], the protein stability index was 2.74.

As to SDVVDWLYHNVEGFTDRREARKYE [A24E], the protein stability index is 2.62.

SDVVDWLYHNVEGFTDRREARKYY [A24Y]: the protein stability index worked out at 2.99.

Turning to SDVVDWLYHNVEGFTDRREARKYM [A24M], the protein stability index came to 2.68.

As to SDVVDWLYHNVEGFTDRREARKYQ [A24Q], the protein stability index was 3.71.

For SDVVDWLYHNVEGFTDRREARKYP [A24P], the protein stability index came to 3.42.

Consider SDVVDWLYHNVEGFTDRREARKYF [A24F], for which the protein stability index was found to be 2.82.

On to SDVVDWLYHNVEGFTDRREARKYN [A24N], for which the protein stability index was 3.62.

As for SDVVDWLYHNVEGFTDRREARKYT [A24T], the protein stability index was 2.79.

Regarding SDVVDWLYHNVEGFTDRREARKYH [A24H], the protein stability index is 3.34.

As for SDVVDWLYHNVEGFTDRREARKYK [A24K], the protein stability index came to 3.12.

For SDVVDWLYHNVEGFTDRREARKYC [A24C], the protein stability index was found to be 3.45.

For the variant SDVVDWLYHNVEGFTDRREARKYD [A24D], the protein stability index worked out at 4.05.

Regarding SDVVDWLYHNVEGFTDRREARKYR [A24R], the protein stability index is 3.11.

For the variant SDVVDWLYHNVEGFTDRREARKYI [A24I], the protein stability index was found to be 1.95.

For SDVVDWLYHNVEGFTDRREARKYL [A24L], the protein stability index came out at 2.66.

Consider SDVVDWLYHNVEGFTDRREARDYA [K22D], for which the protein stability index is 2.89.

Consider SDVVDWLYHNVEGFTDRREARIYA [K22I], for which the protein stability index turned out to be 2.85.

As for SDVVDWLYHNVEGFTDRREARCYA [K22C], the protein stability index was 2.13.

SDVVDWLYHNVEGFTDRREARFYA [K22F]: the protein stability index stood at 1.83.

As to SDVVDWLYHNVEGFTDRREARWYA [K22W], the protein stability index turned out to be 2.06.

As for SDVVDWLYHNVEGFTDRREARGYA [K22G], the protein stability index came out at 2.68.

Turning to SDVVDWLYHNVEGFTDRREARMYA [K22M], the protein stability index turned out to be 2.06.

Regarding SDVVDWLYHNVEGFTDRREARVYA [K22V], the protein stability index was determined as 2.36.

Regarding SDVVDWLYHNVEGFTDRREARTYA [K22T], the protein stability index was 2.95.

For the variant SDVVDWLYHNVEGFTDRREARSYA [K22S], the protein stability index came to 3.31.

SDVVDWLYHNVEGFTDRREAREYA [K22E]: the protein stability index was determined as 3.24.

As to SDVVDWLYHNVEGFTDRREARPYA [K22P], the protein stability index is 3.31.

Turning to SDVVDWLYHNVEGFTDRREARAYA [K22A], the protein stability index was determined as 2.73.

As to SDVVDWLYHNVEGFTDRREARQYA [K22Q], the protein stability index worked out at 2.81.

SDVVDWLYHNVEGFTDRREARHYA [K22H]: the protein stability index was 3.

For the variant SDVVDWLYHNVEGFTDRREARNYA [K22N], the protein stability index came to 3.45.

Take SDVVDWLYHNVEGFTDRREARRYA [K22R]: the protein stability index turned out to be 2.29.

For the variant SDVVDWLYHNVEGFTDRREARLYA [K22L], the protein stability index worked out at 2.19.

As for SDVVDWLYHNVEGFTDRREARYYA [K22Y], the protein stability index worked out at 1.96.

With SDVVDWLYHNVEGFTDRRELRKYA [A20L], the protein stability index stood at 2.34.

SDVVDWLYHNVEGFTDRRERRKYA [A20R]: the protein stability index was 3.15.

Consider SDVVDWLYHNVEGFTDRRENRKYA [A20N], for which the protein stability index came to 2.96.

As to SDVVDWLYHNVEGFTDRRESRKYA [A20S], the protein stability index worked out at 3.43.

In the case of SDVVDWLYHNVEGFTDRREERKYA [A20E], the protein stability index stood at 3.5.

For SDVVDWLYHNVEGFTDRREDRKYA [A20D], the protein stability index is 3.1.

For SDVVDWLYHNVEGFTDRREPRKYA [A20P], the protein stability index is 4.29.

SDVVDWLYHNVEGFTDRREQRKYA [A20Q]: the protein stability index was found to be 2.69.

Regarding SDVVDWLYHNVEGFTDRREKRKYA [A20K], the protein stability index came out at 2.56.

In the case of SDVVDWLYHNVEGFTDRREFRKYA [A20F], the protein stability index came to 2.28.

On to SDVVDWLYHNVEGFTDRREHRKYA [A20H], for which the protein stability index worked out at 3.02.

In the case of SDVVDWLYHNVEGFTDRRECRKYA [A20C], the protein stability index was 2.73.

As for SDVVDWLYHNVEGFTDRREGRKYA [A20G], the protein stability index came to 4.09.

As to SDVVDWLYHNVEGFTDRREYRKYA [A20Y], the protein stability index came out at 2.34.

Turning to SDVVDWLYHNVEGFTDRREVRKYA [A20V], the protein stability index is 1.83.

As for SDVVDWLYHNVEGFTDRREMRKYA [A20M], the protein stability index is 3.28.

With SDVVDWLYHNVEGFTDRRETRKYA [A20T], the protein stability index turned out to be 3.16.

Take SDVVDWLYHNVEGFTDRREIRKYA [A20I]: the protein stability index is 1.98.

Turning to SDVVDWLYHNVEGFTDRREWRKYA [A20W], the protein stability index was 2.18.

Regarding SDVVDWLYHNVEGFTDRREARKIA [Y23I], the protein stability index was 2.82.

For SDVVDWLYHNVEGFTDRREARKFA [Y23F], the protein stability index was 3.17.

For SDVVDWLYHNVEGFTDRREARKWA [Y23W], the protein stability index came out at 2.75.

As for SDVVDWLYHNVEGFTDRREARKLA [Y23L], the protein stability index stood at 3.15.

With SDVVDWLYHNVEGFTDRREARKRA [Y23R], the protein stability index stood at 4.18.

For SDVVDWLYHNVEGFTDRREARKPA [Y23P], the protein stability index amounted to 3.97.

For the variant SDVVDWLYHNVEGFTDRREARKHA [Y23H], the protein stability index is 3.73.

For SDVVDWLYHNVEGFTDRREARKEA [Y23E], the protein stability index was found to be 3.97.

On to SDVVDWLYHNVEGFTDRREARKKA [Y23K], for which the protein stability index was 3.83.

As to SDVVDWLYHNVEGFTDRREARKGA [Y23G], the protein stability index worked out at 4.05.

Regarding SDVVDWLYHNVEGFTDRREARKSA [Y23S], the protein stability index is 4.11.

SDVVDWLYHNVEGFTDRREARKTA [Y23T]: the protein stability index is 3.55.

For SDVVDWLYHNVEGFTDRREARKDA [Y23D], the protein stability index turned out to be 3.95.

As for SDVVDWLYHNVEGFTDRREARKNA [Y23N], the protein stability index worked out at 4.05.

As for SDVVDWLYHNVEGFTDRREARKAA [Y23A], the protein stability index amounted to 4.21.

As to SDVVDWLYHNVEGFTDRREARKVA [Y23V], the protein stability index was 3.6.

SDVVDWLYHNVEGFTDRREARKCA [Y23C]: the protein stability index worked out at 3.69.

With SDVVDWLYHNVEGFTDRRVARKYA [E19V], the protein stability index came to 2.66.

In the case of SDVVDWLYHNVEGFTDRRWARKYA [E19W], the protein stability index came to 1.82.

Take SDVVDWLYHNVEGFTDRRPARKYA [E19P]: the protein stability index amounted to 2.85.

Regarding SDVVDWLYHNVEGFTDRRNARKYA [E19N], the protein stability index worked out at 2.86.

With SDVVDWLYHNVEGFTDRRTARKYA [E19T], the protein stability index is 2.64.

With SDVVDWLYHNVEGFTDRRCARKYA [E19C], the protein stability index came out at 2.38.

With SDVVDWLYHNVEGFTDRRAARKYA [E19A], the protein stability index is 2.54.

Turning to SDVVDWLYHNVEGFTDRRLARKYA [E19L], the protein stability index was found to be 2.35.

Turning to SDVVDWLYHNVEGFTDRRGARKYA [E19G], the protein stability index was 3.02.
